Where a chain is given by its changes, count along the chain named.
Columns and labels:
Details in all cases: protein: recombinant, tags: N-term Twin-Strep-tag, C-term 6xHis
L7Ae [1] = target: L7Ae (Archaeoglobus fulgidus (printed A. …, UniProt O29494 1-119)); assay: SPR; SPR: 10 mM HEPES pH 7.4, 150 mM NaCl, 1 mM MgCl2, 0.05% P20, 0.25 mM TCEP, 0.1 mg/ml BSA, 25 ug/ml yeast tRNA, 25 C; EMSA: 10 mM HEPES-KOH pH 7.5, 140 mM KCl, 10 mM NaCl, 1 mM MgCl2, 0.1 mM TCEP, 0.01% Tween-20, 10 ug/ml yeast tRNA (1x of the printed 5x buffer)
Chain of L7Ae (Archaeoglobus fulgidus (O29494 whole entry): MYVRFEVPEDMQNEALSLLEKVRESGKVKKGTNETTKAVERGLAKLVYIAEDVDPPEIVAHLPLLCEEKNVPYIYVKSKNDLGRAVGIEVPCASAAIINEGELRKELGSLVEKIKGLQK

L7Ae [2] = target: L7Ae (Archaeoglobus fulgidus, UniProt O29494 2-119); assay: SPR (Biacore T200, RNA captured, protein analyte); SPR running buffer: 10 mM HEPES pH 7.4, 150 mM NaCl, 0.05% Surfactant P20, 1 mM MgCl2, 0.25 mM TCEP, 0.1 mg/ml BSA, 25 ug/ml yeast tRNA, 25 C; RNA captured by its 3' docking sequence on biotinylated 2'-OMe RNA
Chain of L7Ae (O29494 2-119): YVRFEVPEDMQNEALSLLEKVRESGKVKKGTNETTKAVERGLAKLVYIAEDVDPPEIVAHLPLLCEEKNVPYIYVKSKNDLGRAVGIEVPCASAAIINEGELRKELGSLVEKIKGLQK

dL7Ae [3] = target: dL7Ae (Archaeoglobus fulgidus (printed A. …, UniProt O29494 1-119, E34K;K37E;R41E;I88G;E89G;V90G;P91G;C92S)); assay: SPR; SPR: 10 mM HEPES pH 7.4, 150 mM NaCl, 1 mM MgCl2, 0.05% P20, 0.25 mM TCEP, 0.1 mg/ml BSA, 25 ug/ml yeast tRNA, 25 C; EMSA: 10 mM HEPES-KOH pH 7.5, 140 mM KCl, 10 mM NaCl, 1 mM MgCl2, 0.1 mM TCEP, 0.01% Tween-20, 10 ug/ml yeast tRNA (1x of the printed 5x buffer)
Chain of dL7Ae (Archaeoglobus fulgidus (O29494 whole entry E34K/K37E/R41E/I88G/E89G/V90G/P91G/C92S): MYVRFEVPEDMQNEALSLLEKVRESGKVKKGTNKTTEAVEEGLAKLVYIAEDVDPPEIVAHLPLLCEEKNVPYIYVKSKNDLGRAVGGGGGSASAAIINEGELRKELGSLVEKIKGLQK

dL7Ae [4] = target: dL7Ae (Archaeoglobus fulgidus, UniProt O29494 2-119, E34K;K37E;R41E;I88G;E89G;V90G;P91G;C92S); assay: SPR (Biacore T200, RNA captured, protein analyte); SPR running buffer: 10 mM HEPES pH 7.4, 150 mM NaCl, 0.05% Surfactant P20, 1 mM MgCl2, 0.25 mM TCEP, 0.1 mg/ml BSA, 25 ug/ml yeast tRNA, 25 C; RNA captured by its 3' docking sequence on biotinylated 2'-OMe RNA
Chain of dL7Ae (O29494 2-119 E34K/K37E/R41E/I88G/E89G/V90G/P91G/C92S): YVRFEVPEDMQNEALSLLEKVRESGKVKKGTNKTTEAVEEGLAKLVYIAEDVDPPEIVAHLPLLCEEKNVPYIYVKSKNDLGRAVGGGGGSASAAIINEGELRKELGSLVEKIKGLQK

B1: CS1-M1 (structured_RNA)
RNA: GGUGGCUGAGAAAGGCGAAAGCCUUGUGAUGCCAUCAAAUCGACGAAAGACACAGAACG
Question: For B1, which Kd (L7Ae [1]; hairpin) is on record?
Answer: The Kd was 1.81 nM.

B2: CS1-M2a (structured_RNA)
RNA: B1 RNA with U7A, G8U, U30G
Question: Does B2 bind (L7Ae [2])?
Answer: Result: binds

B3: CS1-M3 (structured_RNA)
RNA: B1 RNA with U7A, A9U, G28U, U30G
Question: Does B3 bind (L7Ae [2])?
Answer: Result: no binding

B4: CS1-M2b (structured_RNA)
RNA: B1 RNA with U7A, G8A, U30G
Question: Does B4 bind (L7Ae [2])?
Answer: Result: binds

B5: CS1-M2c (structured_RNA)
RNA: B1 RNA with U7A, A29U, U30G
Question: Does B5 bind (L7Ae [2])?
Answer: Result: binds

B6: CS1-M2 (structured_RNA)
RNA: B1 RNA with U7A, G8U, A29U, U30G
Question: Does B6 bind (L7Ae [2])?
Answer: Result: no binding

B7: CS1 (structured_RNA)
RNA: B1 RNA with U7A, U30G
Question: B7 was tested. Which Kd (L7Ae [1]; hairpin, internal loop) did it give?
Answer: Its Kd is 1.49 nM.

B8: dKt (dKt_SPR) (structured_RNA)
RNA: GGCUGGGGCGUCAUCCGAAAGGUGCCCCAGCCAAAUCGACGAAAGACACAGAACG
Question: Does B8 bind (dL7Ae [3]; hairpin, defective kink-turn)?
Answer: Result: no binding

Question: Does B8 bind (L7Ae [1]; hairpin, defective kink-turn)?
Answer: Result: no binding

Question: Does B8 bind (dL7Ae [4]; hairpin, defective kink-turn)?
Answer: Result: no binding

Question: Does B8 bind (L7Ae [2]; hairpin, defective kink-turn)?
Answer: Result: no binding

B9: CS2 (structured_RNA)
RNA: GGAUGCAGAGAACGAAAGUUCCAUGACGCAUCCAAAUCGACGAAAGACACAGAACG
Question: With B9 as the binder, how does the Kd (L7Ae [1]; hairpin, asymmetric internal loop (putative kink-turn)) read?
Answer: Its Kd is 0.00571 nM.

B10: CS2-M3 (structured_RNA)
RNA: B9 RNA with G25U
Question: For B10, which Kd (L7Ae [1]; hairpin) is on record?
Answer: Its Kd is 200 nM.

B11: CS2-M2 (structured_RNA)
RNA: B9 RNA with A9C
Question: Does B11 bind (L7Ae [2])?
Answer: Result: no binding

B12: CS2-M1 (structured_RNA)
RNA: B9 RNA with G8A
Question: Does B12 bind (L7Ae [2])?
Answer: Result: binds

B13: CS2-M4 (structured_RNA)
RNA: B9 RNA with A26C
Question: Does B13 bind (L7Ae [2])?
Answer: Result: binds

B14: Box C/D Kt (Kt_SPR) (structured_RNA)
RNA: GGAUCGCGUGAUCCGAAAGGUGACGAUCCAAAUCGACGAAAGACACAGAACG
Question: Which results are given for B14?
Answer: binding result (dL7Ae [3]; hairpin with kink-turn): no binding; Kd (L7Ae [1]; hairpin with kink-turn): 0.0213 nM; binding result (dL7Ae [4]; hairpin with kink-turn): no binding; Kd (L7Ae [2]; hairpin with kink-turn): 0.0213 nM

Source: publication PMC8789040, “Directed evolution of orthogonal RNA–RBP pairs through library-vs-library in vitro selection”
